Reference: patent US20250313626A1 (HARBOUR BIOMED SHANGHAI, published 2025)
Changes are numbered by the printed parent chain. Where two headings read alike, the source gives them in different places.

B1: PR005509 (antibody, human IgG1, kappa, L234A L235A, V domains shown)
VH: QVQLVESGGGVVQPGRSLRLSCAASGFTFSSYGFHWVRQAPGKGLEWLGLIWSDGSNKYYADSVKGRFTISRDNSKNTLYLQMNSLRAEDTAVYYCARDRIVGAGFDYWGQGTLVTVSS
VL: not shown
B2: PR007973 (antibody, human IgG1, kappa, V domains shown)
VH: B1 VH with L50I, G55A, A104E
VL: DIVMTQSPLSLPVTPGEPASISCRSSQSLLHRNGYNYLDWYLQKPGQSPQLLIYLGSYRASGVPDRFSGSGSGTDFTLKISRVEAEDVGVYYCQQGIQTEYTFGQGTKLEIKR
notes: PTM variant of PR006839 (human IgG1)
B3: PR002906 (antibody, V domains shown)
VH: QVQLQESGPGLVKPSETLSLTCTVSGYTITSGYDWSWIRQPPGKGLEWIGYINYGGSTNYKPSLGSRVTISVDTSKNQFSLKLSSVTAADTAVYYCARYNEYKSYIYDWYFDFWGQGTLVTVSS
VL: DIQMTQSPSSLSASVGDRVTITCKASKNIRSYLAWYQQKPGKAPKLLIYSGSTLHSGVPSRFSGSGSGTDFTLTISSLQPEDFATYYCQQHHEYPLTFGQGTKVEIKR
notes: also called recombinant IgG1 antibody of huDX182
B4: PR006480 (antibody, human IgG1, kappa, L234A L235A)
heavy: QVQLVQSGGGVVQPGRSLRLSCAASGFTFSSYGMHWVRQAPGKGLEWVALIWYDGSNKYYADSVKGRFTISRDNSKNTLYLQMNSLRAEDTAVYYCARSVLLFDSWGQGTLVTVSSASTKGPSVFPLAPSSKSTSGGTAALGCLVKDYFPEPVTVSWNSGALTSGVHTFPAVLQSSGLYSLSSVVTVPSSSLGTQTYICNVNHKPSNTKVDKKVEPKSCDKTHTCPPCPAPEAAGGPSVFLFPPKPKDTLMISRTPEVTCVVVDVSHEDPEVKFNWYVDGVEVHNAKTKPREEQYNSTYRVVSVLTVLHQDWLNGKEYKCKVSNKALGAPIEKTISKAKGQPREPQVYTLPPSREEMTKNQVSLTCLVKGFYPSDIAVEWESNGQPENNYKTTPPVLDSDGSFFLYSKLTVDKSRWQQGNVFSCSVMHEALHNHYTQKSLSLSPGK
light: DIQMTQSPPSLSASVGDRVTITCRASQSISSYLNWFQQKAGKAPKLLISATSNLQSGVPSRFSGSGSGTDFTLTISSLQPEDLATYYCQQSYSSPYTFGQGTKVEIKRTVAAPSVFIFPPSDEQLKSGTASVVCLLNNFYPREAKVQWKVDNALQSGNSQESVTEQDSKDSTYSLSSTLTLSKADYEKHKVYACEVTHQGLSSPVTKSFNRGEC
notes: also called PR6480
B5: PR007221 (antibody, human IgG1, kappa)
heavy: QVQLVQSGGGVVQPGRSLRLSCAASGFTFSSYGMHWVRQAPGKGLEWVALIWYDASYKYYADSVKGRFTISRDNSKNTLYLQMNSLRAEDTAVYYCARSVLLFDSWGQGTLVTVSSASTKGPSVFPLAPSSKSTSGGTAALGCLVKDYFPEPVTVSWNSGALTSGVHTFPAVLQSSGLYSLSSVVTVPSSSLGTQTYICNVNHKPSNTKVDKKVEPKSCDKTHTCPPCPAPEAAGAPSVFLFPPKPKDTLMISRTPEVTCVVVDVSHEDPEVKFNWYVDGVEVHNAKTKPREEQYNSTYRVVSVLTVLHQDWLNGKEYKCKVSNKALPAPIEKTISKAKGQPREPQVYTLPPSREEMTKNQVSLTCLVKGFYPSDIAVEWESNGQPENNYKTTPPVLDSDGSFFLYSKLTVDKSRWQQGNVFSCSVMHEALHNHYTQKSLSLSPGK
light: B4 light with M4L, S91T, Y92L
notes: PTM variant of PR006895 (human IgG1)
B6: PR007223 (antibody, human IgG1, kappa)
heavy: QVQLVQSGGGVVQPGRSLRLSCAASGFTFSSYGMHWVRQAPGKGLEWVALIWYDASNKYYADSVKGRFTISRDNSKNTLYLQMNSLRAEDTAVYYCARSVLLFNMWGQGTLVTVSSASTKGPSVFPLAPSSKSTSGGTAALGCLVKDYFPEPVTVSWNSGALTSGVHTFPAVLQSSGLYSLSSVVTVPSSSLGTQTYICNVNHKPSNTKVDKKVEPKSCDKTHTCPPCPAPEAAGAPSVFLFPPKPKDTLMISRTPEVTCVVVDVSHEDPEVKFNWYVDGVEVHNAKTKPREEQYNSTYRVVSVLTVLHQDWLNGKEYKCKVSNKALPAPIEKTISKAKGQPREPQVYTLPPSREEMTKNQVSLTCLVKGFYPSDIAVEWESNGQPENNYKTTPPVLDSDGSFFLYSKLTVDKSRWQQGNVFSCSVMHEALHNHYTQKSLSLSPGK
light: B4 light with M4L, S91T
notes: as for B5

Legend:
[1] = biological target: T1, Cynomolgus macaques CD200R1 isoform a on CHOK1 cells (CHOK1/cynoCD200R1a) (Cynomolgus macaques); assay: flow cytometry, CHOK1/cynoCD200R1a cells; table beside the curves
T1 chain: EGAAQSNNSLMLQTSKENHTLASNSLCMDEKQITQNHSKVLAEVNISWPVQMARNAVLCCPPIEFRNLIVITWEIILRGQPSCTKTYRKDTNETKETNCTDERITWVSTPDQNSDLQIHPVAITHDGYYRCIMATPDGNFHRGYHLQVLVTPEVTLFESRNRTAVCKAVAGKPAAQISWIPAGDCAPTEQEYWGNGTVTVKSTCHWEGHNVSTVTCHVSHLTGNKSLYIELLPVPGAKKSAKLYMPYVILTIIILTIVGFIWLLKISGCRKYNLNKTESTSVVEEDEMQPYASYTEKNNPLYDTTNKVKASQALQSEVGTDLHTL
Description: (§1) This example is intended to investigate the in vitro binding activity of human anti-CD200R1 monoclonal antibodies to human/Cynomolgus macaques CD200R1a expressed on the surface of cells. The anti-CD200R1 antibodies were produced as described in Example 3.4 and the binding experiments at the cell level were performed using CHOK1/hCD200R1a and CHOK1-cynoCD200R1a.
(§2) Briefly, CHOK1/hCD200R1a cells and CHOK1-cynoCD200R1a cells were digested, and collected, and then were resuspended in PBS containing 2% BSA, respectively. The cell density was adjusted to 1×10⁶ cells/mL. The cells were seeded in a 96-well V-bottom plate (Corning, #3894) at 100 μL/well, followed by the addition of test antibodies and reference antibodies in a series diluted concentration, each at 100 μL/well. The cells were incubated away from light at 4° C. for 1 h. Thereafter, the cells in each well were rinsed twice with 100 μL of pre-cooled PBS containing 2% BSA, and centrifuged at 500 g at 4° C. for 5 min, and then the supernatant was discarded. […] Finally, the cells in each well were resuspended in 200 μL of pre-cooled PBS containing 2% BSA, and the fluorescence signal values were read using a BD CantoII flow cytometer.

[2] = biological target: T2, human CD200R1 isoform a on CHOK1 cells (CHOK1/hCD200R1a) (human, UniProt Q8TD46 25-348); assay: flow cytometry, CHOK1/hCD200R1a cells; table beside the curves
T2 construct: also called CHOK1/CD200R1a
T2 sequence: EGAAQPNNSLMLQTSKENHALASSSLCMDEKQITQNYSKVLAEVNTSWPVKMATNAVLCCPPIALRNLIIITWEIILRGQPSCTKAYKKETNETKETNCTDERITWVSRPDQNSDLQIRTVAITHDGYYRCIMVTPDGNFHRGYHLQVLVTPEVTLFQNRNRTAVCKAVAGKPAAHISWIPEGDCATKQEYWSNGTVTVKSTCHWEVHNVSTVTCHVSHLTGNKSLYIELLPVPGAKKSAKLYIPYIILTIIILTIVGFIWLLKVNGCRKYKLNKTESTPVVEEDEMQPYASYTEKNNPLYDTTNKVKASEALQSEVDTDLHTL
Description: as §1, §2

[3] = biological target: T2, human CD200R1 isoform a on CHOK1 cells …; assay: flow cytometry, CHOK1/hCD200R1a cells; table beside the curves, head without unit, x axis Log [Ab] (nM)
Description: as §1, §2

[4] = biological target: T2, human CD200R1 isoform a on CHOK1 cells …; assay: flow cytometry blocking assay: antibody titrated against biotin-labelled human CD200 binding to CHOK1/hCD200R1a cells; head prints EC50 without unit, x axis Log [Ab] (nM), y axis Inhibition %
Description: (§3) In brief, CHOK1/hCD200R1a cells were digested and resuspended in 2% BSA in PBS. […] The cells were placed at 4° C. and incubated for 1 hour in the dark. […] 100 μL/well of pre-cooled PBS containing 2% BSA was added to rinse the cells twice, centrifugation was performed at 500 g, 4° C. for 5 minutes, and the supernatant was discarded. Fluorescent secondary antibody (PE Streptavidin, BD, Cat #: 554061, 1:200) was added at 100 μL/well, and incubation was performed at 4° C. for 30 minutes in the dark. The cells were washed twice with 200 μL/well of pre-cooled PBS, and were centrifuged at 500 g, 4° C. for 5 minutes, and the supernatant was discarded. Finally, 200 μL/well of pre-cooled PBS was used to resuspend the cells, and the fluorescence signal values were read using ACEA Novocyte 3000 flow cytometer. IC50 values were calculated.

[5] = biological target: T2, human CD200R1 isoform a on CHOK1 cells …; assay: flow cytometry, CHOK1/hCD200R1a cells (FITC-Mean); table beside the curves, head without unit, x axis Log [Ab] (nM)
[6] = biological target: T2, human CD200R1 isoform a on CHOK1 cells …; assay: flow cytometry blocking assay: biotin-labelled human CD200 binding to CHOK1/hCD200R1a cells; y axis Inhibition %
Description: as §3

[7] = biological target: T1, Cynomolgus macaques CD200R1 isoform a …; assay: flow cytometry, CHOK1/cynoCD200R1a cells (APC-A Mean); table beside the curves
[8] = biological target: T2, human CD200R1 isoform a on CHOK1 cells …; assay: flow cytometry blocking assay: antibody titrated against human CD200 binding to CHOK1/hCD200R1a cells
[9] = biological target: T3, CD200R1a on PathHunter Jurkat CD200R1a signaling cells (Eurofins DiscoverX, 93-1136C19) (human, UniProt Q8TD46 25-348); assay: cell-based or functional assay
T3 sequence: T2 sequence

[10] = biological target: T3, CD200R1a on PathHunter Jurkat CD200R1a …; assay: cell-based or functional assay; remark: listed apart in the source

| Binder | MFI(Max) [1] | MFI(Max) [2] | EC50 [3] | EC50 [4] | EC50 [5] | Blocking(Max) [6] | EC50 [7] | MFI (MAX) [7] | IC50 (read off the curve) [8] | IC50 of the inhibition of CD200-induced PathHunter Jurkat CD200R1a luminescence (CHOK1/hCD200 cells as CD200 source) [9] | other results |
| --- | --- | --- | --- | --- | --- | --- | --- | --- | --- | --- | --- |
| B1 | 19900 | 101000 | 6.57 nM | – | – | – | – | – | – | – | – |
| B2 | – | – | – | 0.36 nM | 0.339 nM | 100% | 3.78 nM | 62500 | ~10 nM | – | – |
| B3 | 6440 | 131000 | 15.2 nM | 0.463 nM | 0.436 nM | 96.6% | 16.4 nM | 23900 | – | – | – |
| B4 | – | – | – | – | – | – | – | – | – | 0.654 nM | – |
| B5 | – | – | – | – | – | – | – | – | – | – | IC50 of the inhibition of CD200-induced PathHunter Jurkat CD200R1a luminescence (CHOK1/hCD200 cells as CD200 source) [10]: 1.27 nM |
| B6 | – | – | – | – | – | – | – | – | ~10 nM | 0.578 nM | – |
